Results: patent US20250122482A1

Target: mouse-TfR Fab (8D3) fused to SpyCatcher
Assay: cell-based or functional assay

soluble SpyTag peptide (peptide; modification not given; by the resolver: SpyCatcher is fused to one Fab chain and forms an isopeptide bond with SpyTag, whether soluble or on the capsid)
cross conjugation signal (luciferase, transduction assay on mTfR+HEK293) (log reduction): 2
